Patent publication US6475717

Tests used:
human IL-1-alpha (human) = target: T1, human IL-1-alpha (human) (UniProt P01583); experiment: control in IL-4R/Fc sandwich ELISA; hu IL-1 α at 7.5 ng/ml
T1 sequence (looked up): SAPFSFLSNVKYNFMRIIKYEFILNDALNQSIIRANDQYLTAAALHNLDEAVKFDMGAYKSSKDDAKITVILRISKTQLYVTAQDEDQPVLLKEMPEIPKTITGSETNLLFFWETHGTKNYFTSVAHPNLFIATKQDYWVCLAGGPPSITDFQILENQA

human IL-1-beta (human) = human IL-1-beta (human) (UniProt P01584); experiment: control in IL-4R/Fc sandwich ELISA; hu IL-1 β at 16.6 ng/ml
UniProt P01584, sequence (P01584 117-269 limits assumed): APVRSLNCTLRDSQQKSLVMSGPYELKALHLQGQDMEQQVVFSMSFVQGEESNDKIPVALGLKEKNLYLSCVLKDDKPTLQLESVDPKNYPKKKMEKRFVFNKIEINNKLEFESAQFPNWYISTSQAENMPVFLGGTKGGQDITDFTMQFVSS

human TNF-alpha (human) [1] = target: human TNF-alpha (human) (UniProt P01375); experiment: control in IL-4R/Fc sandwich ELISA; hu-TNF α as printed (Genzyme B1089) at 50 ng/ml
UniProt P01375, sequence (P01375 77-233 limits assumed): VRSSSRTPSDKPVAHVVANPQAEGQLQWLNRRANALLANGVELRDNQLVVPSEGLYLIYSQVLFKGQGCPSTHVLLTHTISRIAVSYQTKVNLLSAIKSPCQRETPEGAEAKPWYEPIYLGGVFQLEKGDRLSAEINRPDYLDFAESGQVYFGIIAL

human IL-6 (human) = human IL-6 (human) (UniProt P05231); experiment: control in IL-4R/Fc sandwich ELISA; hu IL-6 at 5000 IU/ml
UniProt P05231, sequence (P05231 30-212 limits assumed): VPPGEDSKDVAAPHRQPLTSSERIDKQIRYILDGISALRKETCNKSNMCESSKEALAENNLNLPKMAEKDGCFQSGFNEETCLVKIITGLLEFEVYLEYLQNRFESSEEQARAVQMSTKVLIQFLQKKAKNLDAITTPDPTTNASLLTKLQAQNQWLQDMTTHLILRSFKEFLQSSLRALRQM

human IL-2 (human) = human IL-2 (human) (UniProt P60568); experiment: control in IL-4R/Fc sandwich ELISA; hu IL-2 at 5000 IU/ml
UniProt P60568, sequence (P60568 21-153 limits assumed): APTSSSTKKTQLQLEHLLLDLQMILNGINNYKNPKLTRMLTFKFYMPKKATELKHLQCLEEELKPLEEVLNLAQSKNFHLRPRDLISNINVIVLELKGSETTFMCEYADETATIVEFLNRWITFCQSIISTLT

human IL-7 (human) = target: T2, human IL-7 (human) (UniProt P13232); experiment: control in IL-4R/Fc sandwich ELISA; hu IL-7 at 50 ng/ml
T2 sequence (looked up): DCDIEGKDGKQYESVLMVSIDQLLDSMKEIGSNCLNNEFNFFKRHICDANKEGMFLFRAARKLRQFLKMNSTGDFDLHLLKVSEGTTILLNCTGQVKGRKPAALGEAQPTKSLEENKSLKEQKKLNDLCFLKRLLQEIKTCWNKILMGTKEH

human TNF-alpha (human) [2] = target: human TNF-alpha (human) (UniProt P01375); experiment: control in IL-4R/Fc sandwich ELISA; hu-TNF α (Immunex) at 50 ng/ml
[3] = target: T3, murine recombinant IL-4 (Immunex, Lot 2871-023) (murine) (UniProt P07750); experiment: control in IL-4R/Fc sandwich ELISA; mu IL-4 at 50 ng/ml
T3 sequence (looked up): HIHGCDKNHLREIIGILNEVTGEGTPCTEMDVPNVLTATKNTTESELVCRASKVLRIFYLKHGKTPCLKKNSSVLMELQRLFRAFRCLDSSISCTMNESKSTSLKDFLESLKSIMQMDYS

[4] = target: murine TNF-alpha (murine) (UniProt P06804); experiment: control in mu IL-4R/Fc sandwich ELISA; mu-TNF α at 100 ng/ml
UniProt P06804, sequence (P06804 80-235 limits assumed): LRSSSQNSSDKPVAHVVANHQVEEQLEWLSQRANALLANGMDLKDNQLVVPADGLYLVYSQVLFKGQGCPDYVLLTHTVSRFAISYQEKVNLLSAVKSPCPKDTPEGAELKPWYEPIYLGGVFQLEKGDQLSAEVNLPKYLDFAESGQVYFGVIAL

[5] = target: T4, murine IL-1-beta (murine) (UniProt P10749); experiment: control in mu IL-4R/Fc sandwich ELISA; mu IL-1 β at 10 ng/ml
T4 sequence (looked up): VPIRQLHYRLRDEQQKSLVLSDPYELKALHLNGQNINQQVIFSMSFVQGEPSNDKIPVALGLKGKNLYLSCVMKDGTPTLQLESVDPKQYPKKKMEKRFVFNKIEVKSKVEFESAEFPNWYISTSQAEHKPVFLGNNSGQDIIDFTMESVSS

[6] = target: human recombinant IL-4 (Immunex, Lot 1898-022) (human) (UniProt P05112); experiment: control in mu IL-4R/Fc sandwich ELISA; hu IL-4 at 50 ng/ml
UniProt P05112, sequence (P05112 25-153 limits assumed): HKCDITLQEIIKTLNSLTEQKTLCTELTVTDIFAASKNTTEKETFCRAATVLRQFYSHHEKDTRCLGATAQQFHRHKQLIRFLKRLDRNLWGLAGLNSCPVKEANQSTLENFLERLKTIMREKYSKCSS

[7] = target: T5, murine IL-1-alpha (murine) (UniProt P01582); experiment: control in mu IL-4R/Fc sandwich ELISA; mu IL-1 α at 100 IU/ml
T5 sequence (looked up): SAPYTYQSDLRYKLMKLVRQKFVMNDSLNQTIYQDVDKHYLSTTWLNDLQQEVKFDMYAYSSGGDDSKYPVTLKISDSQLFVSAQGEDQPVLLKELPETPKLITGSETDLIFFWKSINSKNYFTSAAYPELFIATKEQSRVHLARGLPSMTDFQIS

Measured: concentration determined from the extinction

human IL-4 receptor/immunoglobulin Fc fusion protein (from UniProt P24394 26-232)
< 31 pg/mL: human IL-1-alpha (human) | human IL-1-beta (human) | human TNF-alpha (human) [1] | human IL-6 (human) | human IL-2 (human) | human IL-7 (human) | human TNF-alpha (human) [2] | [3]

B1: murine IL-4 receptor/immunoglobulin Fc fusion protein (Fc fusion, UniProt P16382 26-233, looked up, not shown: small tags and cut ends)
chain: IKVLGEPTCFSDYIRTSTCEWFLDSAVDCSSQLCLHYRLMFFEFSENLTCIPRNSASTVCVCHMEMNRPVQSDRYQMELWAEHRQLWQGSFSPSGNVKPLAPDNLTLHTNVSDEWLLTWNNLYPSNNLLYKDLISMVNISREDNPAEFIVYNVTYKEPRLSFPINILMSGVYYTARVRVRSQILTGTWSEWSPSITWYNHFQLPLIQR
< 31 pg/mL: [4] | [5] | [6] | [7]
